# Results published in patent US20230357446A1.
# Molecular target: CD22 on WSU-DLCL2 cells (WSU-DLCL2/CD22^WT; absent from the CRISPR-edited WSU-DLCL2/CD22^KO line) (human) (UniProt P20273)
# Test: cell-based or functional assay
substance,measurement,value
REGN5837 (bispecific antibody),% CD22^KO Survival; ratio CD22^KO:CD22^WT 20:80; 5 pM R1979 +0.46 nM R5837,29.9%
same,% CD22^KO Survival; ratio CD22^KO:CD22^WT 20:80; 5 pM R1979 +2.8 nM R5837,25.2%
same,% CD22^KO Survival; ratio CD22^KO:CD22^WT 20:80; 5 pM R1979 +16.7 nM R5837,20.9%
same,% CD22^KO Survival; ratio CD22^KO:CD22^WT 40:60; 5 pM R1979 +0.46 nM R5837,31.9%
same,% CD22^KO Survival; ratio CD22^KO:CD22^WT 40:60; 5 pM R1979 +2.8 nM R5837,24.1%
same,% CD22^KO Survival; ratio CD22^KO:CD22^WT 40:60; 5 pM R1979 +16.7 nM R5837,19.9%
same,% CD22^KO Survival; ratio CD22^KO:CD22^WT 60:40; 5 pM R1979 +0.46 nM R5837,33.9%
same,% CD22^KO Survival; ratio CD22^KO:CD22^WT 60:40; 5 pM R1979 +2.8 nM R5837,28.2%
same,% CD22^KO Survival; ratio CD22^KO:CD22^WT 60:40; 5 pM R1979 +16.7 nM R5837,19.1%
same,% CD22^KO Survival; ratio CD22^KO:CD22^WT 80:20; 5 pM R1979 +0.46 nM R5837,37.2%
same,% CD22^KO Survival; ratio CD22^KO:CD22^WT 80:20; 5 pM R1979 +2.8 nM R5837,28.8%
same,% CD22^KO Survival; ratio CD22^KO:CD22^WT 80:20; 5 pM R1979 +16.7 nM R5837,26.9%
same,% CD22^KO Survival; ratio CD22^KO:CD22^WT 100:0; 5 pM R1979 +0.46 nM R5837,60.1%
same,% CD22^KO Survival; ratio CD22^KO:CD22^WT 100:0; 5 pM R1979 +2.8 nM R5837,56%
same,% CD22^KO Survival; ratio CD22^KO:CD22^WT 100:0; 5 pM R1979 +16.7 nM R5837,45.4%
same,% CD22^WT Survival; ratio CD22^KO:CD22^WT 0:100; 5 pM R1979 +0.46 nM R5837,28.5%
same,% CD22^WT Survival; ratio CD22^KO:CD22^WT 0:100; 5 pM R1979 +2.8 nM R5837,22.4%
same,% CD22^WT Survival; ratio CD22^KO:CD22^WT 0:100; 5 pM R1979 +16.7 nM R5837,12.6%
same,% CD22^WT Survival; ratio CD22^KO:CD22^WT 20:80; 5 pM R1979 +0.46 nM R5837,19.3%
same,% CD22^WT Survival; ratio CD22^KO:CD22^WT 20:80; 5 pM R1979 +2.8 nM R5837,16.4%
same,% CD22^WT Survival; ratio CD22^KO:CD22^WT 20:80; 5 pM R1979 +16.7 nM R5837,11.2%
same,% CD22^WT Survival; ratio CD22^KO:CD22^WT 40:60; 5 pM R1979 +0.46 nM R5837,20.1%
same,% CD22^WT Survival; ratio CD22^KO:CD22^WT 40:60; 5 pM R1979 +2.8 nM R5837,12.8%
same,% CD22^WT Survival; ratio CD22^KO:CD22^WT 40:60; 5 pM R1979 +16.7 nM R5837,9.45%
same,% CD22^WT Survival; ratio CD22^KO:CD22^WT 60:40; 5 pM R1979 +0.46 nM R5837,19.1%
same,% CD22^WT Survival; ratio CD22^KO:CD22^WT 60:40; 5 pM R1979 +2.8 nM R5837,12.4%
same,% CD22^WT Survival; ratio CD22^KO:CD22^WT 60:40; 5 pM R1979 +16.7 nM R5837,8.6%
same,% CD22^WT Survival; ratio CD22^KO:CD22^WT 80:20; 5 pM R1979 +0.46 nM R5837,20.6%
same,% CD22^WT Survival; ratio CD22^KO:CD22^WT 80:20; 5 pM R1979 +2.8 nM R5837,13.1%
same,% CD22^WT Survival; ratio CD22^KO:CD22^WT 80:20; 5 pM R1979 +16.7 nM R5837,7.95%
same,CD4+ T cell activation (MFI of CD25); ratio CD22^KO:CD22^WT 0:100; 5 pM R1979 +0.46 nM R5837,13400 MFI
same,CD4+ T cell activation (MFI of CD25); ratio CD22^KO:CD22^WT 0:100; 5 pM R1979 +2.8 nM R5837,14800 MFI
same,CD4+ T cell activation (MFI of CD25); ratio CD22^KO:CD22^WT 0:100; 5 pM R1979 +16.7 nM R5837,17700 MFI
same,CD4+ T cell activation (MFI of CD25); ratio CD22^KO:CD22^WT 20:80; 5 pM R1979 +0.46 nM R5837,11200 MFI
same,CD4+ T cell activation (MFI of CD25); ratio CD22^KO:CD22^WT 20:80; 5 pM R1979 +2.8 nM R5837,14400 MFI
same,CD4+ T cell activation (MFI of CD25); ratio CD22^KO:CD22^WT 20:80; 5 pM R1979 +16.7 nM R5837,15300 MFI
same,CD4+ T cell activation (MFI of CD25); ratio CD22^KO:CD22^WT 40:60; 5 pM R1979 +0.46 nM R5837,11800 MFI
same,CD4+ T cell activation (MFI of CD25); ratio CD22^KO:CD22^WT 40:60; 5 pM R1979 +2.8 nM R5837,13200 MFI
same,CD4+ T cell activation (MFI of CD25); ratio CD22^KO:CD22^WT 40:60; 5 pM R1979 +16.7 nM R5837,13600 MFI
same,CD4+ T cell activation (MFI of CD25); ratio CD22^KO:CD22^WT 60:40; 5 pM R1979 +0.46 nM R5837,8520 MFI
same,CD4+ T cell activation (MFI of CD25); ratio CD22^KO:CD22^WT 60:40; 5 pM R1979 +2.8 nM R5837,10900 MFI
same,CD4+ T cell activation (MFI of CD25); ratio CD22^KO:CD22^WT 60:40; 5 pM R1979 +16.7 nM R5837,12000 MFI
same,CD4+ T cell activation (MFI of CD25); ratio CD22^KO:CD22^WT 80:20; 5 pM R1979 +0.46 nM R5837,7520 MFI
same,CD4+ T cell activation (MFI of CD25); ratio CD22^KO:CD22^WT 80:20; 5 pM R1979 +2.8 nM R5837,8280 MFI
same,CD4+ T cell activation (MFI of CD25); ratio CD22^KO:CD22^WT 80:20; 5 pM R1979 +16.7 nM R5837,9850 MFI
same,CD4+ T cell activation (MFI of CD25); ratio CD22^KO:CD22^WT 100:0; 5 pM R1979 +0.46 nM R5837,4280 MFI
same,CD4+ T cell activation (MFI of CD25); ratio CD22^KO:CD22^WT 100:0; 5 pM R1979 +2.8 nM R5837,4060 MFI
same,CD4+ T cell activation (MFI of CD25); ratio CD22^KO:CD22^WT 100:0; 5 pM R1979 +16.7 nM R5837,3150 MFI
same,CD8+ T cell activation (MFI of CD25); ratio CD22^KO:CD22^WT 0:100; 5 pM R1979 +0.46 nM R5837,7920 MFI
same,CD8+ T cell activation (MFI of CD25); ratio CD22^KO:CD22^WT 0:100; 5 pM R1979 +2.8 nM R5837,9030 MFI
same,CD8+ T cell activation (MFI of CD25); ratio CD22^KO:CD22^WT 0:100; 5 pM R1979 +16.7 nM R5837,9880 MFI
same,CD8+ T cell activation (MFI of CD25); ratio CD22^KO:CD22^WT 20:80; 5 pM R1979 +0.46 nM R5837,6310 MFI
same,CD8+ T cell activation (MFI of CD25); ratio CD22^KO:CD22^WT 20:80; 5 pM R1979 +2.8 nM R5837,8410 MFI
same,CD8+ T cell activation (MFI of CD25); ratio CD22^KO:CD22^WT 20:80; 5 pM R1979 +16.7 nM R5837,8660 MFI
same,CD8+ T cell activation (MFI of CD25); ratio CD22^KO:CD22^WT 40:60; 5 pM R1979 +0.46 nM R5837,6140 MFI
same,CD8+ T cell activation (MFI of CD25); ratio CD22^KO:CD22^WT 40:60; 5 pM R1979 +2.8 nM R5837,7920 MFI
same,CD8+ T cell activation (MFI of CD25); ratio CD22^KO:CD22^WT 40:60; 5 pM R1979 +16.7 nM R5837,7880 MFI
same,CD8+ T cell activation (MFI of CD25); ratio CD22^KO:CD22^WT 60:40; 5 pM R1979 +0.46 nM R5837,4800 MFI
same,CD8+ T cell activation (MFI of CD25); ratio CD22^KO:CD22^WT 60:40; 5 pM R1979 +2.8 nM R5837,6620 MFI
same,CD8+ T cell activation (MFI of CD25); ratio CD22^KO:CD22^WT 60:40; 5 pM R1979 +16.7 nM R5837,6670 MFI
same,CD8+ T cell activation (MFI of CD25); ratio CD22^KO:CD22^WT 80:20; 5 pM R1979 +0.46 nM R5837,4250 MFI
same,CD8+ T cell activation (MFI of CD25); ratio CD22^KO:CD22^WT 80:20; 5 pM R1979 +2.8 nM R5837,4890 MFI
same,CD8+ T cell activation (MFI of CD25); ratio CD22^KO:CD22^WT 80:20; 5 pM R1979 +16.7 nM R5837,4970 MFI
same,CD8+ T cell activation (MFI of CD25); ratio CD22^KO:CD22^WT 100:0; 5 pM R1979 +0.46 nM R5837,3000 MFI
same,CD8+ T cell activation (MFI of CD25); ratio CD22^KO:CD22^WT 100:0; 5 pM R1979 +2.8 nM R5837,2510 MFI
same,CD8+ T cell activation (MFI of CD25); ratio CD22^KO:CD22^WT 100:0; 5 pM R1979 +16.7 nM R5837,2160 MFI
